The target of the experiment is recombinant truncated protein E pE22-160, designated pE(A) (H. influenzae (NTHi strain 772)). The experiment is described as follows: Western blot of pE(A) probed with IgD(λ). In general terms: Immunoblotting shows a protein as a band on a membrane.

For “human IgD(λ) myeloma protein (human IgD myeloma whole serum IgD(λ), The Binding Site, Birmingham, England) (antibody)”, the amount of pE(A) detected on Western blot is 0.01 microg.

The values above are taken from patent US20090246219A1.
